Test results: paper PMC10350107

Key:
[1] = molecular target: human MCM8–9 complex, wild type (FLAG-MCM8 with MBP-MCM9, co-expressed) (human) (UniProt Q9UJA3)
[2] = tested on: MCM8 (FLAG-MCM8);MCM9 (MBP-MCM9) (human;human); experiment: EMSA; settings: EMSA: 25 mM Tris acetate pH 7.5, 3 mM EDTA (or 4 mM ATP + 1 mM Mg acetate), 1 mM DTT, 0.1 mg/ml BSA, 1 nM DNA (100 ng for plasmid-length DNA), 15 min on ice …

human MCM8–9 complex, wild type (FLAG-MCM8 with MBP-MCM9, co-expressed) (human), sequence (Q9UJA3 whole entry, chain 1 of 2): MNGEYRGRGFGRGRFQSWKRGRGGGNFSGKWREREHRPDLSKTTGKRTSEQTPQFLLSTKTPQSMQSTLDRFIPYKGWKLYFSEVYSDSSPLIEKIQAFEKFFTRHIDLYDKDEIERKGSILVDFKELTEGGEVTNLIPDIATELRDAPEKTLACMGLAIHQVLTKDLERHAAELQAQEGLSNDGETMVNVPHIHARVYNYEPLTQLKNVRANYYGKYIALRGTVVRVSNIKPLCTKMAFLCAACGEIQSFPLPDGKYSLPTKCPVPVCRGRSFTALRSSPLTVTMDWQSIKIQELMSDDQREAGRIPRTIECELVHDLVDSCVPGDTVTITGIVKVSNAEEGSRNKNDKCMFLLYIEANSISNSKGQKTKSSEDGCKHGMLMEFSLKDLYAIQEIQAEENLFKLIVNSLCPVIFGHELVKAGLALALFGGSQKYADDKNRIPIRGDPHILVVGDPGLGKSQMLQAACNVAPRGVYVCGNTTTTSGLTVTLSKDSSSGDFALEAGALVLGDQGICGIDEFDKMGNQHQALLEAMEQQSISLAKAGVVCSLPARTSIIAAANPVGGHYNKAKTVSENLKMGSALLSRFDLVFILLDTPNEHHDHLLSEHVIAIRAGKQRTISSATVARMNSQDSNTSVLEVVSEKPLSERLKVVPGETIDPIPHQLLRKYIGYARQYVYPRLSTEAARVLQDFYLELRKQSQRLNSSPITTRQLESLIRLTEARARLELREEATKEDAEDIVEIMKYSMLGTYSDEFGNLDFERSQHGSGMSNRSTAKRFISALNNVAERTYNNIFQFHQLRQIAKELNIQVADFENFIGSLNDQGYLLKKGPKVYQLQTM
human MCM8–9 complex, wild type (FLAG-MCM8 with MBP-MCM9, co-expressed) (human), sequence (Q9NXL9 whole entry, chain 2 of 2, further chain): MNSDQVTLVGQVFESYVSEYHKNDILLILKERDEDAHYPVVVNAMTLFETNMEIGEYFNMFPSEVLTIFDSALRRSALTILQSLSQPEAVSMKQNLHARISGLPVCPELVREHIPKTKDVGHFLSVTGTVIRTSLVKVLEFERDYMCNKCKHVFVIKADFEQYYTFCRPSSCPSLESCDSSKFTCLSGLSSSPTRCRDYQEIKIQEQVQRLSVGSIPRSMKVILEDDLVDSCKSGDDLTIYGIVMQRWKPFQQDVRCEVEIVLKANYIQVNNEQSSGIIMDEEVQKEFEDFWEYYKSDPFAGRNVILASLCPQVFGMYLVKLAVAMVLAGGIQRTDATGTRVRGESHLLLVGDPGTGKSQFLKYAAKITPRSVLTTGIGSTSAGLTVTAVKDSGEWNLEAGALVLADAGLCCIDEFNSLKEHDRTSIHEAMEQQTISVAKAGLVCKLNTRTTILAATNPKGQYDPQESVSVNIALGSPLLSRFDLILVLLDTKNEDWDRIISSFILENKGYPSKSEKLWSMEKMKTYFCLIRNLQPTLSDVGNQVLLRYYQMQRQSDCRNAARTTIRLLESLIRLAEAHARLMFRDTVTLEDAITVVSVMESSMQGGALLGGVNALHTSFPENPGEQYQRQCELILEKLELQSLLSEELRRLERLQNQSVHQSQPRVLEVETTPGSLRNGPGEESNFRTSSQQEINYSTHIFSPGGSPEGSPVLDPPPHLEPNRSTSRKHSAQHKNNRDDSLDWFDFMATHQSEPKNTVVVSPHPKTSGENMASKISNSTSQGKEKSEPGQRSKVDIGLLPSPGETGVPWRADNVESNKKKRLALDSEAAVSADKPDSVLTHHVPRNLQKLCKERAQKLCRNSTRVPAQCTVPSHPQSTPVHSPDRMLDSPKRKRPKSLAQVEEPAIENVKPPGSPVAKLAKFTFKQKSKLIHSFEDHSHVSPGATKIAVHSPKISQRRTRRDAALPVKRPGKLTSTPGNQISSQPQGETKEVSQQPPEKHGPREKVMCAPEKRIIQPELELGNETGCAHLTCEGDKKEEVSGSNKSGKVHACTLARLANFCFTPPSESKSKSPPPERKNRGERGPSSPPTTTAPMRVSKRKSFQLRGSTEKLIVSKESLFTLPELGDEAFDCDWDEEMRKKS

| Substance | ATP hydrolysis by MCM8–9 (200 nM) without or with HROB, DNA as co-factor; stimulation 1.5 to 2-fold [1] [fold] | K half [2] [nM] |
| --- | --- | --- |
| HROB-FLAG, wild type human HROB (homologous recombination factor with OB-fold) (from UniProt Q8N3J3-4 1-646) (natural protein) | 1.5 to 2 | – |
| Y-structure (PC1254/PC1253) | – | 55 |
| Holliday junction (PC1253/PC1254/PC1255/PC1256) | – | 55 |
